The source of these data is US20140120109A1 (Regeneron, published 2014).

For experiment [1], the target named is T1, mouse DR3, full-length, expressed on HEK293 NFkB-luciferase reporter cells (mouse).
T1 chain: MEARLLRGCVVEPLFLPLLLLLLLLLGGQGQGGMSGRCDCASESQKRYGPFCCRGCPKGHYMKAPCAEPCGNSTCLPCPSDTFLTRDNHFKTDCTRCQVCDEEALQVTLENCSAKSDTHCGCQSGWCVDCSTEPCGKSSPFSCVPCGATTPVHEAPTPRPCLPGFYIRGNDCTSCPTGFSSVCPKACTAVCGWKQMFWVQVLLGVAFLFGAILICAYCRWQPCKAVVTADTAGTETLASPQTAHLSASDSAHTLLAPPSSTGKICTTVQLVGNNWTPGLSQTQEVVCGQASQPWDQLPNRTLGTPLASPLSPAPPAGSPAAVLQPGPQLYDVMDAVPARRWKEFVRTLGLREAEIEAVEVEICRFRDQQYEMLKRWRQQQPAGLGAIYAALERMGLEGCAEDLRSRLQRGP
The experiment can be described thus: cell-based or functional assay.

Experiment [2] deals with T2, mouse TL1A, soluble, E. coli-expressed, residues 76-252 of SEQ ID NO:250 (mouse, UniProt Q5UBV8 76-252).
T2 construct: with or without N-terminal Met; also called mTL1A (E. Coli)
T2 sequence: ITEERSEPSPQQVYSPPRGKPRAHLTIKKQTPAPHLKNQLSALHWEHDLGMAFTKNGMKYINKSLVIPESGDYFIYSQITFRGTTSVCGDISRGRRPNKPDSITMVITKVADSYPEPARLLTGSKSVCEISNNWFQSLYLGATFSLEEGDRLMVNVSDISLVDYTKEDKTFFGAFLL
The experiment can be described thus: SPR 25C, steady state. Here is the method: Measurements were conducted on a T100 BIACORE™ instrument. […] Kinetic association (kₐ) and dissociation (kd) rate constants were determined by fitting the data to a 1:1 binding model using BIAevaluation 4.1 curve fitting software (BIAcore Life Sciences). Molar concentrations of TL1A/Fhm used in the data fitting assumed a monomeric state for TL1A in solution. […]

Experiment [3] addresses T3, cynomolgus monkey TL1A, soluble, CHO-expressed, residues 72-251 of SEQ ID NO:248 with N-terminal His6-tag (cynomolgus monkey (Macaca fascicularis), UniProt O95150 72-251 (human entry)).
T3 construct: also called MfTL1A; MfTL1A (CHO)
T3 chain: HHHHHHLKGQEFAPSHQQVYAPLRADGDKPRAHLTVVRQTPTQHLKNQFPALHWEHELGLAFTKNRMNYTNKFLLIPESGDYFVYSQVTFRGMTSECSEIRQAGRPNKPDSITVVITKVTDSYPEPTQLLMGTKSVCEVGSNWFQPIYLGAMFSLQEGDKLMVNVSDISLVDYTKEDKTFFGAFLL
The experiment can be described thus: ELISA, blocks MfTL1A (50 pM) binding hDcR3-Fc. Here is the method:
(§1) The ability of antibodies to block human TL1A binding to its cognate receptors, the DR3 and DcR3 receptors, was measured using a competition sandwich ELISA. In addition, blocking of a human TL1A variant FHM (human TL1A Q167R) and the cynomolgus monkey (Macaca fascicularis) TL1A (MfTL1A) protein binding to the human DR3 or DcR3 receptors was measured in the same manner. Constant amounts of biotinylated human TL1A or FHM (both expressed with a 6-His tag in CHO cells) or biotinylated MfTL1A (expressed in CHO cells) were separately titrated with varying amounts of antibodies. The antibody-protein complexes were incubated in solution (1 hr, 25° C.) and then transferred to microtiter plates coated with human DR3 (hDR3) or human DcR3 (hDcR3) expressed as human IgG1 Fc fusion proteins. After one hour at 25° C. the wells were washed, and bound human or monkey TL1A was detected with streptavidin conjugated with horseradish peroxidase (HRP). Wells were developed with a TMB solution to produce a colorimetric reaction and quenched with aqueous sulfuric acid before reading absorbance at 450 nm on a Perkin-Elmer Victor X5 plate reader. A sigmoidal dose-response curve was fit to the data using the Prism™ data analysis package. […] Both fully human anti-hTL1A mAbs and comparator antibodies, i.e., control mAb1 (an anti-hTL1A antibody with heavy and light chain variable domains having the amino acid sequences corresponding to SEQ ID NOS:21 and 27, respectively, of US 2009/0280116) and control mAb3 (an anti-hTL1A antibody with heavy and light chain variable domains having the amino acid sequences corresponding to SEQ ID NOS:57 and 48, respectively, of US 2009/0280116), were included in the study. NB: No binding under the conditions tested; NT: Not tested. Concentrations of biotinylated soluble ligands: (1) 150 pM; (2) 500 pM; (3) 10 pM; and (4) 50 pM.

For experiment [4], the target named is T4, human TL1A, soluble, CHO-expressed, residues 72-251 of SEQ ID NO:244 with N-terminal His6-tag (human, UniProt O95150 72-251).
T4 construct: also called hTL1A; hTL1A (CHO)
T4 sequence: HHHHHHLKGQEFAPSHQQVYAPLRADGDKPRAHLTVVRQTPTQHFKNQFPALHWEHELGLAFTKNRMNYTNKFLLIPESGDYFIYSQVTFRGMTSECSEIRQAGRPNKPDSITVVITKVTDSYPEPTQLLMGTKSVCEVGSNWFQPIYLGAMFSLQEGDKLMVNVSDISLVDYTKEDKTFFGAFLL
Briefly: ELISA, blocks hTL1A (150 pM) binding hDR3-Fc. Here is the method: as §1

Experiment [5] addresses T5, Fhm, hTL1A(Q167R), soluble, CHO-expressed, residues 72-251 of SEQ ID NO:246 (human, UniProt O95150 72-251).
T5 construct: also called Fhm (CHO); FHM (CHO)
T5 chain: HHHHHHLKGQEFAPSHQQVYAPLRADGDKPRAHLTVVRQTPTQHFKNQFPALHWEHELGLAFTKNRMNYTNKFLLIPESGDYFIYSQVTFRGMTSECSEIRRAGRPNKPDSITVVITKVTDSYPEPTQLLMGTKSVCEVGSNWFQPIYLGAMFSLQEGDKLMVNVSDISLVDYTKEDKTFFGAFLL
The experiment can be described thus: ELISA, blocks FHM (150 pM) binding hDR3-Fc; blocking of FHM binding to hDR3. Here is the method: as §1

The target in experiment [6] is T4, human TL1A, soluble, CHO-expressed, …. Briefly: ELISA, blocks hTL1A (10 pM) binding hDcR3-Fc. Here is the method:
as §1

The target of experiment [7] is T3, cynomolgus monkey TL1A, soluble, …. Briefly: ELISA, blocks MfTL1A (500 pM) binding hDR3-Fc. Here is the method:
as §1

In experiment [8] the target is T6, cynomolgus monkey TL1A, soluble, E. coli-expressed, residues 72-251 of SEQ ID NO:248 (cynomolgus monkey (Macaca fascicularis), UniProt O95150 72-251 (human entry)).
T6 construct: with or without N-terminal Met; also called MfTL1A (E. Coli)
T6 chain: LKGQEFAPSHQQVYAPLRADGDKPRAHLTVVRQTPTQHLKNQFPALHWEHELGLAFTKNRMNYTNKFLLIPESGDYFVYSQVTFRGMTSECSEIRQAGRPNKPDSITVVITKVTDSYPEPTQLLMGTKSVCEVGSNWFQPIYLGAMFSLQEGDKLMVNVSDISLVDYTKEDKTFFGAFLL
Briefly: SPR 25C, mAb captured. Here is the method:
(§2) Measurements were conducted on a T100 BIACORE™ instrument. […] Kinetic association (kₐ) and dissociation (kd) rate constants were determined by fitting the data to a 1:1 binding model using BIAevaluation 4.1 curve fitting software (BIAcore Life Sciences). Molar concentrations of TL1A/Fhm used in the data fitting assumed a monomeric state for TL1A in solution. Binding dissociation equilibrium constants (KD) and dissociative half-lives (t_{1/2}) were calculated from the kinetic rate constants as: KD (M)=kd/kₐ; and t_{1/2} (min)=[In2/(60*kd)].

Experiment [9] addresses T7, Fhm, hTL1A(Q167R), soluble, E. coli-expressed, residues 72-251 of SEQ ID NO:246 (human, UniProt O95150 72-251).
T7 construct: with or without N-terminal Met
T7 chain: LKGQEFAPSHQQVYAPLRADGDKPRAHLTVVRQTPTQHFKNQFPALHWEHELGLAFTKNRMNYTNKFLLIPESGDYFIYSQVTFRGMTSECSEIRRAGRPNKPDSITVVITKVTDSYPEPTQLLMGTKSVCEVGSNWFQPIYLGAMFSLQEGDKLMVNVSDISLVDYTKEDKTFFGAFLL
Briefly: SPR 25C, mAb captured. Here is the method:
as §2

The target in experiment [10] is T6, cynomolgus monkey TL1A, soluble, E. …. The experiment can be described thus: SPR 37C, mAb captured. Here is the method:
as §2

B1: full length rat TL1A expressed on HEK293 cells (ligand)
chain: MAEELGLGFGEAVPVEMLPEGCRHRREARTGLAARSKACLALTCCLLSFPILAGLSTLLMTGQLRIPGKDCMFPTVTEERSAPSAQPVYTPSRDKPKAHLTIMRQTPVPHLKNELAALHWENNLGMAFTKNRMNYTNKFLVIPESGDYFIYSQITFRGTTSECGDISRVRRPKKPDSITVVITKVADSYPEPAHLLTGTKSVCEISSNWFQPIYLGAMFSLEEGDRLMVNVSDISLVDYTKEDKTFFGAFLI
In the case of B1, the “EC50 (cells), NFkB-luciferase reporter” value in experiment [1] is 9770 cells.

B2: H2M1804N (antibody, V domains shown)
VH: QVQLHQWGAGLLKPSETLSLTCAVSGVSFSDYHWAWIRQSPGKGLEWIGDINHRGRTNYNPSLKSRVTISLDTSGNPFSLKLTSVTAADTAVYYCARDFPNWVFDSWGQGILVTVSS
VL: EIVLSQSPGTLSLSPGERATLSCRASQSVSSSFLAWYQQYPGQAPRLLIYGASRRATGIPDRFRGSGSGTDFTLTISRLEPEDFAVYYCQQYGSSPLTFGGGTKVENK
notes: chimeric hybridoma antibody: human variable regions, mouse constant regions (mouse Fc)
B2: the binding result in [2] is reported as “no binding (tested: up to 100 nM)”. The IC50 came out at 0.009 nM in experiment [3]; 0.046 nM in experiment [4]; 0.102 nM in experiment [5]; 0.12 nM in [6]; 0.081 nM in [7]. Moreover, the Kd in [8] was 0.176 nM; in experiment [9] it was 0.192 nM; in [10], 0.218 nM. The t1/2 in [8] came out at 172 min; in experiment [9], 108 min; in [10], 118 min.

B3: H2M1818N (antibody, V domains shown)
VH: RLQLVESGGGLVKPGGSLKLSCAASGFTISDYYMSWIRQAPGKGLEWVSYIGGSGSTIYYADSVKGRFTISRDNAKNSLYLQMNSLRAEDTAVYYCAREDADSYYYYGMDVWGQGTTVTVSS
VL: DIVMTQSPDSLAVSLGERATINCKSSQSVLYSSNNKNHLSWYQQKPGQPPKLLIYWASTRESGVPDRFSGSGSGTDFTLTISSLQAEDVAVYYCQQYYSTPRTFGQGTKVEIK
notes: as for B2
Consider B3, for which the Kd turned out to be 171 nM in [2], 1.84 nM in experiment [8], 1.08 nM in [9] and 4.1 nM in experiment [10]. In addition, the IC50 stood at 0.055 nM in [3]; 0.154 nM in experiment [4]; 0.317 nM in experiment [5]; 0.396 nM in [6]; 0.239 nM in experiment [7]. In addition, the t1/2 in experiment [8] is 10 min; in experiment [9] it was 17 min; in experiment [10], 3 min.

B4: full length mouse TL1A expressed on HEK293 cells (ligand)
chain: MAEELGLGFGEGVPVEVLPEGCRHRPEARAGLAARSKACLALTCCLLSFPILAGLSTLLMAGQLRVPGKDCMLRAITEERSEPSPQQVYSPPRGKPRAHLTIKKQTPAPHLKNQLSALHWEHDLGMAFTKNGMKYINKSLVIPESGDYFIYSQITFRGTTSVCGDISRGRRPNKPDSITMVITKVADSYPEPARLLTGSKSVCEISNNWFQSLYLGATFSLEEGDRLMVNVSDISLVDYTKEDKTFFGAFLL
Regarding B4, in experiment [1], the “EC50 (cells), NFkB-luciferase reporter” value amounted to 12400 cells.
